Data taken from a protein production outcome set (Wang et al. 2014).

Experiment: label from the status in PepcDB records

| Sequence | protein production |
| --- | --- |
| MGRRKKILFTDYFINLVDTYKLNQVGERTYNKYCLTHRHLKKICPDLYLQDMNANDYQQILNEFGKTHEKATTVDFHHQLAWALKRAYNVDGLTDRDVTYDAQIPKGVVTNKKKPKFMELDDMKKLVVTLKYLNSSYANFFLILLKTGLRFAELLGITLEDIDFEKKTISINKTLDYKKGAYDENFSRRFKSTKNKYSIRTIPVDDAVIYMFWRNAKGADKDESIFGSIKGFQYNSSLNNKLEQTCKYAGVPVITLHGLRHEHATYLVSQGIDSRAVAERLGHVDDSVTREVYIHRLETERVRDNQQIMRSVSKI | failed |
| MLTHKTCQARKKMQVSFVIRDAEEKQHRNGVNALQLDANNGKLYSAGRDAIIRVWNTRTDSSEKYIQSMEHHNDWVNDIVLCCNGRNLISASCDTTVKVWNAQKGFCMSTLRTHRDYVQALAYAKDREQVASAGLDKAIFLWDVNTLTALTASNNTVTTSSLTGSKDSIYSLAMNPSGTVIVSGSTENILRIWDPRTCMRRMKLRGHTENVRCLVVSPDGNQVVSGSSDGTIKVWNLGQQRCVQTIHVHKEGVWSLLMSENFQYIISGSRDRNIIVTEMRNPSNKTLVCEEQAPVLSLGYNIDKTGVWATTWNSDIRCWKLPMYDRCTLNSSGGMDAQWTQGGTEVACIKGGAAIKECAVLNDKRYIITKDSQDQVVVYDVLRVVKKEQLGAVDFEAEVKKRNKQVYIPNWFTVDLKTGMPTIVLGQEEVDCFSAWVSIEAGLPECVDPTTEIKINYGKLLLEALLEYWTPPHSIPPNEMEPDMHGNGYFQVPKHTPVIFSEVGGRTVCRLLVRDAAGDSESTLLHETAPQWVTDVVIEKNIPKFLKIPFFLQPHPQMTKPERTKKDRLVANEFIQCRKVCEHVLEKVLNAETTPSGGNANNSLQNSQSDANSEGSQLPAEERIELWCNDVVVDPNMDLRTVRHFIWKQSTDLTFQYKTKQNFNYDGK | failed |
| MVGLLVEDTIDDQGWNRKAYEGLLNIHSNLDVDVVLEEGVNSEQKAHRRIKELVDGGVNLIFGHGHAFAEYFSTIHNQYPDVHFVSFNGEVKGENITSLHFEGYAMGYFGGMVAASMSETHKVGVIAAFPWQPEVEGFVDGAKYMNESEAFVRYVGEWTDADKALELFQELQKEQVDVFYPAGDGYHVPVVEAIKDQGDFAIGYVGDQADLGGSTILTSTVQHVDDLYVLVAKRFQEGKLESGNLYYDFQDGVVSLGEFSSVVPDEVREQITDAISTYIQTGQFPHEEER | not failed |
| MTEHSSDYYQRLVDESALEEFLTREIGPAETFDVARHEQGHSNETLFVTWGDRELVVRRPPPGQTAETAHDVLREYRVIDALQDTAVPVPPTVTACDDQTIIGSDFYVMARVEGTVIRDDEPARFGSDDARAAVGTELVDTLAAIHEVDPTAVGLSDLGRADGYAKRQVARWGKQLAWAFERTAESRTIPELERVGSWLQDECPDDHPKTLVHGDYKLDNVMFGPGDDPELAAVFDWEMATLGDPRADLGWLLSYWRDAKDPEPEIPDLAMEFIEAPGYLTRTDLVDRWEAQTGLTFEHERFYRTLAVYKLAALGEMFYRRYLEGNADDPFYPLMEDRVPALANRAVRIIEGDEPL | failed |
| MERKFMSLQPSISVSEMEPNGTFSNNNSRNCTIENFKREFFPIVYLIIFFWGVLGNGLSIYVFLQPYKKSTSVNVFMLNLAISDLLFISTLPFRADYYLRGSNWIFGDLACRIMSYSLYVNMYSSIYFLTVLSVVRFLAMVHPFRLLHVTSIRSAWILCGIIWILIMASSIMLLDSGSEQNGSVTSCLELNLYKIAKLQTMNYIALVVGCLLPFFTLSICYLLIIRVLLKVEVPESGLRVSHRKALTTIIITLIIFFLCFLPYHTLRTVHLTTWKVGLCKDRLHKALVITLALAAANACFNPLLYYFAGENFKDRLKSALRKGHPQKAKTKCVFPVSVWLRKETRV | failed |
| MRLRVDVIPGEHLAYPDVVLVVDVIRATTTAAAFLEAGAEALYWTPSLESALAFKDEDVVLAGETGGLKPPRFDLGNSPREALSAQVAGRVVVMSTTNGTKAAHAAARTAKHVLLASLYNAHAAARLARELATEEVAILCAGKEGRAGLDDLYTAGVLAEYLGFLGEVEPEDGARVALAVKRAYPDPLEALSLSAAALALKQVGLEADVPFCAQVAKSAAVPVLRGRVGEALIFKRA | not failed |
| MRFLAYFGHLNIDVLISVDSIPREGSVNVKDLRPRFGGTAGNFAIVAQKFRIPFDLYSAVGMKTHREYLAMIESMGINTGHVEKFEDESGPICYIATDGKKQVSFMHQGAMAAWAPQLADEYEYVHFSTGPNYLDMAKSIRSKIIFDPSQEIHKYSKDELKKFHEISYMSIFNDHEYRVFREMTGLSSPKVTTIVTNGERGSSLFMDGKKYDFPAIPSSGDTVGAGDSFRAGLYLALYNRRSIEKGMIYGTIIAHHVIDDGIENFSLNMEDLERETENYRRMFTKRS | not failed |
| RFGLPVNGALDQYSARAANILAGNLDNHPLLEITALDFRMKANSDVLIAVTGAPLTLTVGGRPCSQWEPVSVRAGESVSIRGIHRGLRAYLAIHGSIEAGTLLGSAAPDTVVGFGLQLQEGTTLLSRRSVSPVRQPYFDLPLFRLGLERPSMGSDLSVDVTDGPDVAEFGESGELLFTSEYVVSGRSNHIGLRLGGELPERTSSDEVLSRGVPVGAVEVPSREELLVLHRGRGVTAGYPVLAVVTSTGLDVLAQARPGDKVRFRKTTVAEATAAHRRSRAQ | failed |
| MKKRYKNPEKSGSCGNFIQAIKMTDKVQPLESLSKKPEEPKIVVNLRRIKRKIMVMSGKGGVGKSTVAANLAVGLALRGHRVGLLDCDIHGPTVPTIFGLESARPGVSEEGILPIEVLPNLSVMSIGFLLENKDSPIIWRGPAKMGAIKQFLEEVFWGALDFLIIDLPPGTGDEPLSVAQLIPNCDGSVLVTTPQDVALISVRKSITFSEKLNVPIIGLVDNMHGLICPHCGKPIEVFGSGGVEKASKDFNIPILARLPIEPGVAEMEDRGTVVQDQLKHGTEWQKNFDNVVDAVEKILEKELEHHHHHH | not failed |
| MPEIEIAAGSGDNNDALFGKYELGKLLGCGAFAKVFHARDRRTGQSVAVKILNKKKLLTNPALANNIKREISIMRRLSHPNIVKLHEVMATKSKIFFAMEFVKGGELFNKISKHGRLSEDLSRRYFQQLISAVGYCHARGVYHRDLKPENLLIDENGNLKVSDFGLSALTDQIRPDGLLHTLCGTPAYVAPEILSKKGYEGAKVDVWSCGIVLFVLVAGYLPFNDPNVMNMYKKIYKGEYRFPRWMSPDLKRFVSRLLDINPETRITIDEILKDPWFVRGGFKQIKFHDDEIEDQKVESSLEAVKSLNAFDLISYSSGLDLSGLFAGCSNSSGESERFLSEKSPEMLAEEVEGFAREENLRMKKKKEEEYGFEMEGQNGKFGIGICISRLNDLLVVVEARRRGGDGDCYKEMWNGKLRVQLIRVCDQTSSTNAAI | failed |
| MALVLVKYGTDHPVEKLKIRSAKAEDKIVLIQNGVFWALEELETPAKVYAIKDDFLARGYSEEDSKVPLITYSEFIDLLEGEEKFIG | not failed |
| MIKSKGDVNILLNFRHNINGEDLIIAVAQDHETGEVLMVAYMNREALRRTLETGTAHYWSTSRGKLWLKGESSGHVQRVKDVLVDCDGDAVVLKVEQEGGACHTGYRSCFYRSIDGDELKVREDAVKVFDPEEIYGDG | not failed |
| MDDVKDKLKGFMKKVNLSSSSGKFKGQGRVLGSSSSSSAPPVNPIQNRFNSSQAPNPTPRPKPNPNPLPEKPLSSSDQKISGSTRNPDHDPVRAPQDGFDPYGAFITSSNRSQNGYSLSMFECPICKNPFTSEEEVSVHVESCLGDTNGDESSFEKDNNDNDKSEMEKLVVVYLSGKPSESSIDVLLRLFKNIVKEPENAKFRKVRMSNAKIKEAIGDVAGGVELLELVGFELKEENDEIWAVMDVPSEEQSILINKVVGYLEKRKTESSGSSAQVMEPVAPKKIDRENGCFLVQIRVFFSVSENVASRIEVPDSFYSLSADEIKREADLRRKKIAESQLLIPRSYKEKQAKAARKRYKRSMIRVQFPDGVVLQGVFAPWEPTFALYEFVSSALKEPSLQFELLDPVLVKRRVIPHTPAPGQKPITLEDEELVPSALIRFRPIETDSLVFTGLRNELLEISEPLS | failed |
| ERNKTLYWGGALWSPPSNWNPFTPWNAVAGTIGLVYEPLFLYDPLNDKFEPWLAEKGEWVSNNEYVLTLRKGLRWQDGVPLTADDVVFTFEIAKKYTGISYSPVWNWLGRIERVDERTLKFVFSDPRYQEWKQMLINTPIVPKHIWENKTEEEVLQAANENPVGSGPYYVESWADDRCVFKKNGNWWGIRELGYDPKPERIVELRVLSNNVAVGMLMKGELDWSNFFLPGVPVLKKAYGIVTWYENAPYMLPANTAGIYINVNKYPLSIPEFRRAMAYAINPEKIVTRAYENMVTAANPAGILPLPGYMKYYPKEVVDKYGFKYDPEMAKKILDELGFKDVNKDGFREDPNGKPFKLTIECPYGWTDWMVSIQSIAEDLVKVGINVEPKYPDYSKYADDLYGGKFDLILNNFTTGVSATIWSYFNGVFYPDAVESEYSYSGNFGKYANPEVETLLDELNRSNDDAKIKEVVAKLSEILLKDLPFIPLWYNGAWFQASEAVWTNWPTEKNPYAVPIGWNGWWQLTGIKTLFGIEAK | not failed |
| MTSFDRPFEAARPDGENPSAHETLAEGGRLRPEATYTIPARQGRAIRMAQGEALMVINRDGSQIGDFWAFVEGDCGEYLSMEHLRPTLRRVSPRPGDVLVSNRRRPILTLLEDSSPGVHDTLVASCDVHRYAQLGHEGYHDNCTDNLRMALGALGLRPTTVPCPLNLWMNTPVVEGGAMEWRPPVSRRGDHVLFRAELDVVVVISCCPMDLLPINGEEAQPRALDVRLRPRPA | not failed |
| MVKALFSLLFVAFIWGSTFPIQKIVLVGVSPTFYIAVRFFIAALVSYFLFGKGNVKYGSILGTLLGIAYTTQTWGLTITTSTKSGFITSMYIVFVPVFAYLLEREIPTIFQIVSFFAASLGLYMISGGIKDFNFGDFLTLICAVSFALHVVLITMFSKRVKEVDLLFPQFLVVGILNLILNFFWKNWNFTLPALGSAVFTALAATILAIYLQAKYQKALGNNVSAIVFLGEPVFAAVVSYFMLGETMAGKQLLGAALLLISMLFSSLERVKIVRDANQKGRDECEDSL | failed |
| MLPVQILKDNAQEERGESARLSSFVGAIAIGDLVKSTLGPKGMDKILISGNPESAGGIKVTNDGATILKSIGVDNPAAKVLVDMSMTQDHEVGDGTTSVTVLAAELLKEAEKLVNQRIHPQTIISGYRRALGIAQESLKKSSIESGDNIRDDLLKIARTTLGSKILSQHKEHFAQLAVDAVLRLKGSGNLDAIQIIKKLGGSMNESYLDEGFLLEKLPGMFQPRRVEKAKILIANTPMDTDKVKVFGSRVRVDGVAKVAELEAAEKLKMKEKVDKILAHNCNVFINRQLIYNYPEQLFADAKVMAIEHADFEGIERLALVLGGEIVSTFDSPQTAQFGSCDLIEEIMIGEDRLLRFSGVKLGEACSVVLRGATQQILDESERSLHDALCVLVTHVKESKTVAGAGASEILMSSAIAVEAQKVAGKEALAVEAFGRALAQLPTIICDNAGLDSAELVTRLRAEHANGRHNMGIDIEKGEVADVTKLGVIESYNVKLCMVSSAAEATEQILRVDDIIKAAPRARAQDNRPC | not failed |
| MPMPSVRHDEHRPLSPAATLIGPARALEAVLAPGPGPGRPPGLPRPAPGTRRAMKWQQVQEGPSAVYVVVLDQGEDAVAELTAFARERSLGASQVTAVGAFSQAVVGWFDRQAKDYRHIPVREQCEVLSLIGDIAVADDGPTPHLHAVLGLSDGSTRGGHLLSGRVWPTLEVVVRDSPAELAKIHRPDIGLALIDPG | failed |
